How the values were obtained:
α-bungarotoxin = biological target: T1, α-bungarotoxin (Bungarus multicinctus, UniProt P60615); experiment: SPR; settings: both partners purified
T1 construct: source: bought: Latoxan SAS (L8115)

α-elapitoxin = α-elapitoxin (Dendroaspis polylepis, UniProt P01396); experiment: SPR; BIAcore T100; […]; 10 mM HEPES, 150 mM NaCl, 3 mM EDTA, 0.05% P20, pH 7.4; 40 µL/min; 1:1 Langmuir model, global fit; settings: both partners purified
α-cobratoxin = α-cobratoxin (Naja kaouthia (monocled cobra), UniProt P01391); experiment: as above; settings: both partners purified
[1] = biological target: T2, long neurotoxin 2 from N. melanoleuca (Naja melanoleuca, UniProt P01388); experiment: native MS; settings: one partner purified
T2 construct: source: in SEC fractions of N. melanoleuca whole venom (Latoxan L1318)

[2] = biological target: long neurotoxin 4 from N. naja (Naja naja, UniProt P25672); experiment: native MS; settings: one partner purified
[3] = biological target: T3, long neurotoxin 2 from O. hannah (Ophiophagus hannah, UniProt A8N285); experiment: native MS; settings: one partner purified
T3 construct: source: in SEC fractions of O. hannah whole venom (Latoxan L1357)

[4] = biological target: T4, long neurotoxin from N. melanoleuca (Naja melanoleuca, UniProt P0DQQ2); experiment: native MS; settings: one partner purified
T4 construct: source: in SEC fractions of N. melanoleuca whole venom (Latoxan L1318)

Binder | binding result (α-bungarotoxin) | Kd (α-elapitoxin) [nM] | koff (α-elapitoxin) [s⁻¹] | Kd (α-cobratoxin) [nM] | koff (α-cobratoxin) [s⁻¹] | binding result [1] | binding result [2] | binding result [3] | binding result [4]
2554_01_D11 Fab (Fab, V domains shown, source: Expi293 cells, transient, purified (anti-CH1 resin)) VH: QVQLVQSGAEVKKPGSSVKVSCKASGGTFSSYAISWVRQAPGQGLEWMGGIIPIFGTANYAQKFQGRVTITADESTSTAYMELRSLRSDDTAVYYCARDNLGYCSGGSCYSDYYYYYMDVWGQGTLVTVSS VL: NFMLTQPRSVSESPGKTVTISCTRSSGSIGSDYVHWYQQRPGSSPTTVIYEDNQRPSGVPDRFSGSIDSSSNSASLTISGLKTEDEADYYCQSYDRSNHEVVFGGGTKLTVL | binds | 1.69 | 0.000177 | 1.78 | 0.000229 |  |  |  | 
2555_01_A01 Fab (Fab, V domains shown, source: Expi293 cells, transient, purified (anti-CH1 resin)) VH: QVQLVQSGAEVKKPGSSVKVSCKASGGTFSSYAISWVRQAPGQGLEWMGGIIPIFGTANYAQKFQGRVTITADESTSTAYMELRSLRSDDTAVYYCARDNLGYCSGGSCYSDYYYYYMDVWGQGTLVTVSS VL: SYELTQPPSVSVAPGRTATITCEGDNIGQQIVHWYQQKPGQAPVAVISSDSDRPSGIPERFSGSNSGNTATLTISRVEAGDEADYYCQVWDSGSDHVVFGGGTKVTVL |  | 1.81 | 0.000181 | 8.41 | 0.0017 |  |  |  | 
2554_01_D11 IgG (antibody, V domains shown, also called IgG 2554_01_D11; copies: 2 + 2) VH: QVQLVQSGAEVKKPGSSVKVSCKASGGTFSSYAISWVRQAPGQGLEWMGGIIPIFGTANYAQKFQGRVTITADESTSTAYMELRSLRSDDTAVYYCARDNLGYCSGGSCYSDYYYYYMDVWGQGTLVTVSS VL: NFMLTQPRSVSESPGKTVTISCTRSSGSIGSDYVHWYQQRPGSSPTTVIYEDNQRPSGVPDRFSGSIDSSSNSASLTISGLKTEDEADYYCQSYDRSNHEVVFGGGTKLTVL |  |  |  |  |  | binds | binds | binds | binds

— article PMC9908967 (Nature Communications, 2023)
